Laboratory results reported in paper PMC8497992.

Tests used:
Assay in all cases: fluorescence polarization
Details in all cases: 50 mM Tris-HCl pH 8.0, 50 mM KCl, 1 mM EDTA; 50 nM labeled oligonucleotide; temperature not stated
[1] = target: SAMHD1 HD domain R366C R366C (UniProt Q9Y3Z3)
[2] = target: SAMHD1 HD domain R366H R366H (UniProt Q9Y3Z3)
[3] = target: SAMHD1 HD domain WT (UniProt Q9Y3Z3)
Sequence of SAMHD1 HD domain WT (Q9Y3Z3 114-626): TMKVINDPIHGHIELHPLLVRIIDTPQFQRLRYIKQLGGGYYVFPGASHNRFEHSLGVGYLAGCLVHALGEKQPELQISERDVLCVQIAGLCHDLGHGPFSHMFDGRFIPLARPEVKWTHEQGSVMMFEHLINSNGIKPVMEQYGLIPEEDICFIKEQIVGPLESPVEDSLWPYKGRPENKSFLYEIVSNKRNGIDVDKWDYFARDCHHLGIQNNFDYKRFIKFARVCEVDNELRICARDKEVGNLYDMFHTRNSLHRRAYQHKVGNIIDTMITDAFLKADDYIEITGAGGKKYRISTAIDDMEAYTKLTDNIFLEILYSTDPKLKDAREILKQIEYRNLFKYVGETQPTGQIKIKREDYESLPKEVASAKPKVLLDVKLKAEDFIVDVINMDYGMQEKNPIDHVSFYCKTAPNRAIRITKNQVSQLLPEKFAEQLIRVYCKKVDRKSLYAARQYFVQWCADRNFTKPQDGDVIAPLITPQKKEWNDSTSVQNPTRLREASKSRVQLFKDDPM

Sequence of SAMHD1 HD domain R366H R366H (Q9Y3Z3 114-626 R366H): as the sequence (Q9Y3Z3 114-626) above, with R253H counted along it
Sequence of SAMHD1 HD domain R366C R366C (Q9Y3Z3 114-626 R366C): as the sequence (Q9Y3Z3 114-626) above, with R253C counted along it

Substance: 6FAM-ssRNA40
- Kd [1]: 2250 nM
- Kd [2]: 2480 nM
- Kd [3]: 885 nM

Substance: 6FAM-ssDNA57
- Kd [1]: 3820 nM
- Kd [2]: 2960 nM
- Kd [3]: 387 nM
